Assay [1] relates to HL60 cells. The assay is described as follows: Liver, spleen and sternum cytology of HL60-inoculated mice. It is filed as in vivo. To be noted: HL60-inoculated NOD/SCIDS mice; BCT-100 50 U/mice i.p. weekly for 4 weeks; doxorubicin 3 mg/kg/day i.p.; FIG. 8. Here is the method: (§1) HL60 cells were injected to the tail of NOD/SCIDS mice. Treatment commenced on day 14. The animals were divided into 4 groups. The Doxorubicin group received treatment by doxorubicin, which was administrated at 3 mg/kg/day by intraperitoneal injection 3 times weekly for the first week, thereafter once per week for 4 weeks. The BCT-100 group received treatment by BCT-100, which was administrated at 50 U/mice by intraperitoneal injection weekly for 4 weeks. The combinational group received treatment of both Doxorubicin and BCT-100, administrated as described above. The control group received intraperitoneal injection of saline. […] In the control group, infiltration of leukemia in liver, spleen and sternum was observed.

The test system of assay [2] is Kasumi-1a, ML2, HL60, K562, NB4, ALL-SIL and Jurkat. Nature of the assay: Combination effect of BCT-100 with Doxorubicin on leukemia cell lines. It is filed as cell-based. To be noted: FIG. 7. From the text:
The combination effect of BCT-100 with Doxorubicin on various leukemia cell lines was studied. The leukemia cell lines tested were myeloid leukemia cell lines Kasumi-1a, ML2, HL60, K562, NB4 and lymphocytic leukemia cell lines ALL-SIL and Jurkat.

Assay [3] can be described thus: Arginine depletion in preclinical study. From the text: Arginase is a manganese-containing enzyme, catalyzing the conversion of arginine to ornithine and urea, the last step of the Urea Cycle.
Assay [4] concerns HL60. Nature of the assay: IC50 of BCT-100 in leukemia cell lines. It is filed as cell-based. As to conditions: HL60, myeloid leukemia. From the text:
(§2) The inhibitory effect of BCT-100 in acute myeloid leukemia cells (Kasumi-1a, ML2, HL60, K562 and NB4) and T-cell leukemia cells (Jurkat, ALL-SIL, HPB-ALL and TALL-1) was studied.

The subject of assay [5] is NB4. Nature of the assay: IC50 of BCT-100 in leukemia cell lines. It is filed as cell-based. To be noted: NB4, myeloid leukemia.
Excerpt: as §2

For another assay, the system named is Jurkat. Nature of the assay: IC50 of BCT-100 in leukemia cell lines. It is filed as cell-based. As to conditions: T-cell leukemia.
Excerpt: as §2

The next assay has as its system HPB-ALL. The assay is described as follows: IC50 of BCT-100 in leukemia cell lines. As to conditions: T-cell leukemia. It is filed as cell-based.
Excerpt: as §2

For a further assay, the system named is Kasumi-1a. The assay is described as follows: IC50 of BCT-100 in leukemia cell lines. It is filed as cell-based. As to conditions: myeloid leukemia.
Excerpt: as §2

In the next assay the test system is TALL-1. The assay is described as follows: IC50 of BCT-100 in leukemia cell lines. It is filed as cell-based. As to conditions: TALL-1, T-cell leukemia.
Excerpt: as §2

The next assay concerns All-SIL. The assay is described as follows: IC50 of BCT-100 in leukemia cell lines. It is filed as cell-based. As to conditions: T-cell leukemia.
Excerpt: as §2

The next assay concerns K562. Nature of the assay: IC50 of BCT-100 in leukemia cell lines. It is filed as cell-based. As to conditions: K562, myeloid leukemia.
Excerpt: as §2

The next assay deals with ML2. Nature of the assay: IC50 of BCT-100 in leukemia cell lines. To be noted: ML2, myeloid leukemia. It is filed as cell-based.
Excerpt: as §2

The subject of assay [6] is HL60. Nature of the assay: Cell viability in myelocytic leukemia cells. To be noted: HL60, arsenic resistant; FIG. 1a/1b. It is filed as cell-based. From the text:
(§3) The effect of BCT-100 on arsenic sensitive myelocytic cell lines (NB4 and U937) as well as arsenic resistant myelocytic cell lines (HL60 and UF1) was investigated.
(§4) Both the arsenic sensitive and resistant leukemia cells responded to the BCT-100 treatment.

Assay [7] has as its system UF1. Nature of the assay: Cell viability in myelocytic leukemia cells. It is filed as cell-based. As to conditions: UF1, arsenic resistant; FIG. 1a/1b.
Excerpt: as §3, §4

In assay [8] the test system is NB4. The assay is described as follows: Cell viability in myelocytic leukemia cells. It is filed as cell-based. As to conditions: NB4, arsenic sensitive; FIG. 1a/1b.
Excerpt: as §3, §4

For assay [9], the system named is U937. Nature of the assay: Cell viability in myelocytic leukemia cells. It is filed as cell-based. As to conditions: U937, arsenic sensitive; FIG. 1a/1b.
Excerpt: as §3, §4

Assay [10] deals with HL60. Nature of the assay: Induction of apoptosis in leukemia cells. It is filed as cell-based. As to conditions: HL60, arsenic resistant; FIG. 2. Here is the method: (§5) The effect of BCT-100 in inducing apoptosis in both arsenic sensitive (NB4 and U937) and arsenic resistant (HL60 and UF1) leukemia cell lines was tested. […] However, the apoptosis rate was low in HL60 and UF1 cells in the presence of arsenic, as these cell lines are arsenic resistant.

Assay [11] has as its system UF1. Nature of the assay: Induction of apoptosis in leukemia cells. It is filed as cell-based. As to conditions: UF1, arsenic resistant; FIG. 2. Here is the method:
as §5

The subject of assay [12] is NB4. The assay is described as follows: Induction of apoptosis in leukemia cells. It is filed as cell-based. As to conditions: NB4, arsenic sensitive; FIG. 2. Here is the method:
as §5

In assay [13] the test system is U937. Nature of the assay: Induction of apoptosis in leukemia cells. To be noted: U937, arsenic sensitive; FIG. 2. It is filed as cell-based. Here is the method: as §5
In the next assay the test system is Bax. The assay is described as follows: Western blot of Bax expression in HL60. It is filed as cell-based. As to conditions: 8 hrs after treatment and afterwards, FIG. 3. Here is the method: (§6) Expression of Bax and pmTOR was assessed in leukemic cell line HL60 by western blotting with or without BCT-100 treatment using monoclonal antibodies against Bax and pmTOR respectively. The same blot was stripped and probed with anti-actin antibody for loading control. Apoptosis was determined by annexin V labeling. HL60 cells were cultured in medium with or without BCT-100 and the expression of annexin V were analyzed by flow-cytometry at 8, 16, 24, and 36 hrs after BCT-100 treatment.
(In general: In western blotting, separated proteins are transferred to a membrane and probed.)

For the next assay, the system named is HL-60. Nature of the assay: Survival of HL60-inoculated mice. It is filed as in vivo. To be noted: HL-60-inoculated NOD/SCIDS mice; FIG. 9. Here is the method: as §1
The effect of BCT-100 on the survival rate of HL-60-incoluated NOD/SCIDS mice was investigated. […] Thus BCT-100 can be administrated with Doxorubicin to treat leukemia, e.g., myeloid leukemia.

Another assay relates to pmTOR. The assay is described as follows: Western blot of pmTOR expression in HL60. It is filed as cell-based. To be noted: FIG. 3. Here is the method: as §6
Assay [14] has as its system T-cell acute lymphocytic leukemia, acute myeloid leukemia, hepatocellular carcinoma and pancreatic cancer cell lines. Nature of the assay: IC50 of BCT-100 in various cancer cell lines. It is filed as cell-based. To be noted: FIG. 6. An excerpt:
The IC50 values of BCT-100 in various cancer cell lines were investigated. The cancer cell lines being tested were T-cell acute lymphocytic leukemia, acute myeloid leukemia, hepatocellular carcinoma and pancreatic cancer.

The test system of assay [15] is HL60 cells. Nature of the assay: Reorganization of promyelocytic leukemia nuclear bodies (immunostaining). It is filed as cell-based. As to conditions: HL60, anti-promyelocytic leukemia immunostaining, vs DMSO control; FIG. 5.
The next assay has as its system NB4 cells. Nature of the assay: Granulocytic differentiation (CD11b expression, FACS). It is filed as cell-based. To be noted: NB4, within 96-hour treatment; FIG. 4a, 4b. From the text: (§7) The induction of granulocytic differentiation in NB4 and HL60 cells was studied. […] Specifically, decrease in nuclear to cytoplasmic ratio, appearance of cytoplasmic granules, chromatin condensation and loss of nucleoli were observed.

Assay [16] relates to HL60 cells. Described as above. As to conditions: HL60, within 96-hour treatment; FIG. 4b. It is filed as cell-based.
Excerpt: as §7

We go through two molecules from US20130295073A1, “Use of pegylated recombinant human arginase for treatment of leukemia” (Bio-Cancer Treatment International Ltd., priority 2010, published 2013).

Regarding `COc1cccc2c1C(=O)c1c(O)c3c(c(O)c1C2=O)C[C@@](O)(C(=O)CO)C[C@@H]3O[C@H]1C[C@H](N)[C@H](O)[C@H](C)O1` [Doxorubicin, reference compound], in the assay on HL60 cells [1], the “infiltration of leukemia in liver, spleen and sternum (cytology)” value is listed as “Modest infiltration”. Further, in assay [2], the “therapeutic effect on leukemia cell lines” value is listed as “effective in treating leukemia”.

B1: BCT-100: pegylated recombinant human arginase; pegylating agent may be mPEG-SPA; preparation disclosed in U.S. Ser. No. 10/518,223 (protein, UniProt P05089 1-322, looked up)
Arginase-1: MSAKSRTIGIIGAPFSKGQPRGGVEEGPTVLRKAGLLEKLKEQECDVKDYGDLPFADIPNDSPFQIVKNPRSVGKASEQLAGKVAEVKKNGRISLVLGGDHSLAIGSISGHARVHPDLGVIWVDAHTDINTPLTTTSGNLHGQPVSFLLKELKGKIPDVPGFSWVTPCISAKDIVYIGLRDVDPGEHYILKTLGIKYFSMTEVDRLGIGKVMEETLSYLLGRKKRPIHLSFDVDGLDPSFTPATGTPVVGGLTYREGLYITEEIYKTGLLSGLDIMEVNPSLGKTPEEVTRTVNTAVAITLACFGLAREGNHKPIDYLNPPK
modifications: PEGylated (mPEG-SPA)
Turning to B1, the arginine depletion entry in assay [3] is “efficacious in inducing arginine depletion in dose-dependent manner”. Further, the IC50 was determined as 55 mU/mL in the assay on HL60 [4]; 60 mU/mL in the assay on NB4 [5]; 40 mU/mL in the assay with Jurkat; 110 mU/mL with HPB-ALL; 65 mU/mL in the assay with Kasumi-1a; 100 mU/mL with TALL-1. Further, the values for the IC50 in the assay on All-SIL, in the assay on K562 and with ML2 were 120 mU/mL, 25 mU/mL and 65 mU/mL, respectively. The cell viability entry with HL60 [6], in the assay with UF1 [7], with NB4 [8] and in the assay on U937 [9] was “dropped with increasing amount of BCT-100” throughout. In addition, the apoptosis rate result with HL60 [10], with UF1 [11], in the assay with NB4 [12] and in the assay with U937 [13] was “effective in inducing apoptosis” in each case. The “infiltration of leukemia in liver, spleen and sternum (cytology)” value in the assay on HL60 cells [1] was “Modest infiltration”. The “therapeutic effect on leukemia cell lines” value in assay [2] is recorded as “effective in treating leukemia”. The Bax level entry in the assay on Bax is given as “up-regulated”. The “survival rate and survival days” value in the assay with HL-60 is “increased as compared to the control group”. Also, the “protein level of pmTOR” value in the assay on pmTOR is reported as “down-regulated”. In assay [14] (T-cell acute lymphocytic leukemia, acute myeloid leukemia, hepatocellular carcinoma and pancreatic cancer), the “effectiveness in cancer cell lines” value is reported as “effective”. In addition, in assay [14] (from IC50 values), the “times more potent in leukemia and pancreatic cancer than in hepatocellular carcinoma” value was 6-10 times. Moreover, the “pattern of promyelocytic leukemia nuclear bodies” value in the assay on HL60 cells [15] is “the microspeckled pattern disappeared and the size and brightness of the promyelocytic leukemia bodies returned to normal”. Moreover, the granulocytic differentiation entry in the assay with NB4 cells and with HL60 cells [16] was “induced granulocytic differentiation” in each case.
